Test results: article PMC7614784, “Structure and function of the RAD51B-RAD51C-RAD51D-XRCC2 tumour suppressor” (Nature, 2023)

What was measured:
[1] = target: T1, B(R231A)CDX2 (Homo sapiens, UniProt O15315;O43502;O75771;O43543 1-345;1-376;1-328;1-280, R231A); test: fluorescence anisotropy; 1 mM ATP; similar to WT; FA: protein in 25 mM HEPES pH 7.5, 10% glycerol, 2.5 mM MgCl2, 0.25 mM TCEP, 150 mM NaCl mixed 1:1 with oligo in HMT buffer, 50 mM NaCl (final ~100 mM NaCl, 5%); details: protein: recombinant; tags: N-terminal TwinStrep-TEV on XRCC2, cleaved; copies: 1;1;1;1; label: 5'-FAM
T1 sequence 1: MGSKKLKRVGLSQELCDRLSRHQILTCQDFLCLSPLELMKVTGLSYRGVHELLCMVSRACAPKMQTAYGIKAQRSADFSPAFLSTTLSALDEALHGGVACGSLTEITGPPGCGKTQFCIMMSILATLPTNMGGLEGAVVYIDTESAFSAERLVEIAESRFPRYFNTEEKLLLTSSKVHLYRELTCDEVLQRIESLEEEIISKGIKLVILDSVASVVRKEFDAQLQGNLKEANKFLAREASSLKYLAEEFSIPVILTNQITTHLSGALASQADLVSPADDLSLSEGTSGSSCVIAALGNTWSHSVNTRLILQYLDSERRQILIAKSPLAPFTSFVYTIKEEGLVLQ
T1 sequence 2: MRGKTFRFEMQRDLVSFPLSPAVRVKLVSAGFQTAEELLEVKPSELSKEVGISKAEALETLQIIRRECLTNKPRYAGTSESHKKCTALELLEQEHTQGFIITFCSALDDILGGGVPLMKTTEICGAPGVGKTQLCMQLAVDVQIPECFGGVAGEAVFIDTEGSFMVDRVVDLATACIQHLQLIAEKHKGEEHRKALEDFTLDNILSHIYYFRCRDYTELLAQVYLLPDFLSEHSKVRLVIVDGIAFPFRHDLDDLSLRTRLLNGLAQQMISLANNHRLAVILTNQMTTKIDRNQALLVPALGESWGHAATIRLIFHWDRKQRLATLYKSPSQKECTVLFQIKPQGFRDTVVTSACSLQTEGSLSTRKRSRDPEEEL
T1 sequence 3: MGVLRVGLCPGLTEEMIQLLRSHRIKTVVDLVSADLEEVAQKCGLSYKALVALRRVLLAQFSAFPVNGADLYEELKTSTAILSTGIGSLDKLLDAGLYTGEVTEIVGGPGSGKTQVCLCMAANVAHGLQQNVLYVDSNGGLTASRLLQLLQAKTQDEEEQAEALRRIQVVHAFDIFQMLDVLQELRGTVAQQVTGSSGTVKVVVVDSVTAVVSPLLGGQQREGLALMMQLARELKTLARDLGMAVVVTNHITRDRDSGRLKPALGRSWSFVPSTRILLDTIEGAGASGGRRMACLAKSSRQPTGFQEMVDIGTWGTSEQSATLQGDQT
T1 sequence 4: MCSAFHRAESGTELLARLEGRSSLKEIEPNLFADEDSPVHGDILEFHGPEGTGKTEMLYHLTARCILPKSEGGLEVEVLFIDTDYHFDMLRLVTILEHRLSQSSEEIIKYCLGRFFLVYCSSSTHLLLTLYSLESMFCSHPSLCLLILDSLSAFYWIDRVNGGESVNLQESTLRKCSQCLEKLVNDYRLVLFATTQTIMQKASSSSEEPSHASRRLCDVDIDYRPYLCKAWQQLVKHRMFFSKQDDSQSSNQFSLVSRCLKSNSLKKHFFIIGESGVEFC

[2] = target: T2, B(R217A)CDX2 (Homo sapiens, UniProt O15315;O43502;O75771;O43543 1-345;1-376;1-328;1-280, R217A); test: as above; details: protein: recombinant; tags: N-terminal TwinStrep-TEV on XRCC2, cleaved; copies: 1;1;1;1; label: 5'-FAM
T2 sequence 1: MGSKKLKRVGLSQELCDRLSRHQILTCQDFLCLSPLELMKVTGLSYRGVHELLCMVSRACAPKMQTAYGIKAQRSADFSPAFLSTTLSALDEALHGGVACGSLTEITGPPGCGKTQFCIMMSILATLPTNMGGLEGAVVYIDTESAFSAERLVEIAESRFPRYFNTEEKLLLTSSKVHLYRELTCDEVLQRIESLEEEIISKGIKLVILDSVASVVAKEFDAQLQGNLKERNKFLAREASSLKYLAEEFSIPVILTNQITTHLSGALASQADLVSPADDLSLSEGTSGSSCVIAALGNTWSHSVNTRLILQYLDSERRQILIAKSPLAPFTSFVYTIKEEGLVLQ
T2 sequence 2: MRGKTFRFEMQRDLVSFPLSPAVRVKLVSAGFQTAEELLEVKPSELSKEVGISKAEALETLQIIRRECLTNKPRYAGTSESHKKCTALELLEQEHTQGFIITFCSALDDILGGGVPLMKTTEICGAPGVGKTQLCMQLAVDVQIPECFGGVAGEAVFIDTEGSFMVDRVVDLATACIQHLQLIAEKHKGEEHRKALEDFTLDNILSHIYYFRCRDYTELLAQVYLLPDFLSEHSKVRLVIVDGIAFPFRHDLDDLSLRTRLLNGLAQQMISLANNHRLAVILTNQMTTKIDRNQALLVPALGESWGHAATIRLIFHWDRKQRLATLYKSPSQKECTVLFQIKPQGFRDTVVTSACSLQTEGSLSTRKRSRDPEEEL
T2 sequence 3: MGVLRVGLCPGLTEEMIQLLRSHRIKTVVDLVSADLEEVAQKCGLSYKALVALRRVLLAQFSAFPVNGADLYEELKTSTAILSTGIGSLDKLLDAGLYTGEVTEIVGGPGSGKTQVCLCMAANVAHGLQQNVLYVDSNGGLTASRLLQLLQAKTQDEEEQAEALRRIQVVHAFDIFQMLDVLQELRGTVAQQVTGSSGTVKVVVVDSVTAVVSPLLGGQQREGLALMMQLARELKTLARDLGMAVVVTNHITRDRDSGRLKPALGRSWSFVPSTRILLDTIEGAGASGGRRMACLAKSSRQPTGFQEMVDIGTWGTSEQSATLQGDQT
T2 sequence 4: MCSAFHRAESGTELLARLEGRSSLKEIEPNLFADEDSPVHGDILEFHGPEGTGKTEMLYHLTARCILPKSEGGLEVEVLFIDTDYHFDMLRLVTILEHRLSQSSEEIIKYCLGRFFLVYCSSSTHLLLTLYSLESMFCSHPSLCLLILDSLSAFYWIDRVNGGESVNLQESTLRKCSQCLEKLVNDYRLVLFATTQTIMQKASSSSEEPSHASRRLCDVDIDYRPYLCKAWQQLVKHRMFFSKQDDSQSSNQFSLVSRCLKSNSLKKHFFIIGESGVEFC

[3] = target: T3, BCD(R221A)X2 (Homo sapiens, UniProt O15315;O43502;O75771;O43543 1-345;1-376;1-328;1-280, R221A); test: fluorescence anisotropy; 1 mM ATP; minimal effect; FA: protein in 25 mM HEPES pH 7.5, 10% glycerol, 2.5 mM MgCl2, 0.25 mM TCEP, 150 mM NaCl mixed 1:1 with oligo in HMT buffer, 50 mM NaCl (final ~100 mM NaCl, 5%); details: protein: recombinant; tags: N-terminal TwinStrep-TEV on XRCC2, cleaved; copies: 1;1;1;1; label: 5'-FAM
T3 sequence 1: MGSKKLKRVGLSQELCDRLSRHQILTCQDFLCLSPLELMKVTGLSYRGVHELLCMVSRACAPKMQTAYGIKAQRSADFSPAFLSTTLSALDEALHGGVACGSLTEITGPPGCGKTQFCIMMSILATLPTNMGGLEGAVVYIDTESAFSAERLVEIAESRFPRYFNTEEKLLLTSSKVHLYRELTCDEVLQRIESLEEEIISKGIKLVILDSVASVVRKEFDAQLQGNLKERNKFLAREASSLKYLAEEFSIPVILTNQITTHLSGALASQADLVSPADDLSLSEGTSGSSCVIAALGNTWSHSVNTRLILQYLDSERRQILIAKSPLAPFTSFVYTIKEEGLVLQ
T3 sequence 2: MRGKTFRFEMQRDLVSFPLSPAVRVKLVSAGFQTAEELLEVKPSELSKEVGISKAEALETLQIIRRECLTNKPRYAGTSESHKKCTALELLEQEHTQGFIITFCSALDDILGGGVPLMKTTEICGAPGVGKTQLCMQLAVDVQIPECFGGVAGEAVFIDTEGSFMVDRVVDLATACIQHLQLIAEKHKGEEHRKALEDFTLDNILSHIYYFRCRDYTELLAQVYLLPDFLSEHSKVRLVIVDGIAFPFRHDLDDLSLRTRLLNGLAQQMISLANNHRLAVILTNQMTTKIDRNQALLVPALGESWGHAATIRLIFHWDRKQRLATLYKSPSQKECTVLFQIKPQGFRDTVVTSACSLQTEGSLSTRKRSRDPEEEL
T3 sequence 3: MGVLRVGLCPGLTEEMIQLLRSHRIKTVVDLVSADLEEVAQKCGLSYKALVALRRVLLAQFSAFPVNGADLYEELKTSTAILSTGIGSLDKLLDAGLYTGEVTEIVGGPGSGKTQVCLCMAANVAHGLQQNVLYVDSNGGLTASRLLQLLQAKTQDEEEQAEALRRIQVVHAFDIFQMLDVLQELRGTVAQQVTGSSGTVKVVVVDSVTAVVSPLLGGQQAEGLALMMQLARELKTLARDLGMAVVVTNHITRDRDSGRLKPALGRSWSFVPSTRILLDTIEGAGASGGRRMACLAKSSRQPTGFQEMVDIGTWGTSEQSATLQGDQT
T3 sequence 4: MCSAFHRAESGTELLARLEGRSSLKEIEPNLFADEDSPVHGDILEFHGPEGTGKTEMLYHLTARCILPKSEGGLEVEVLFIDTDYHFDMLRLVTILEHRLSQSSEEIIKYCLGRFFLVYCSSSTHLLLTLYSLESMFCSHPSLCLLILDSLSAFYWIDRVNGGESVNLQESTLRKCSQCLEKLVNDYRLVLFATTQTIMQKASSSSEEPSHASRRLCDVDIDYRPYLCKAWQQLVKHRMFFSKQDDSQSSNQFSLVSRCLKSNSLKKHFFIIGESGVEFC

[4] = target: T4, BCDX2(AF647) (Homo sapiens, UniProt O15315;O43502;O75771;O43543 1-345;1-376;1-328;1-280); test: bulk FRET; high FRET; XRCC2 near 5' end; FA: protein in 25 mM HEPES pH 7.5, 10% glycerol, 2.5 mM MgCl2, 0.25 mM TCEP, 150 mM NaCl mixed 1:1 with oligo in HMT buffer, 50 mM NaCl (final ~100 mM NaCl, 5%); details: protein: recombinant; copies: 1;1;1;1; label: 5'-Cy3
T4 sequence 1: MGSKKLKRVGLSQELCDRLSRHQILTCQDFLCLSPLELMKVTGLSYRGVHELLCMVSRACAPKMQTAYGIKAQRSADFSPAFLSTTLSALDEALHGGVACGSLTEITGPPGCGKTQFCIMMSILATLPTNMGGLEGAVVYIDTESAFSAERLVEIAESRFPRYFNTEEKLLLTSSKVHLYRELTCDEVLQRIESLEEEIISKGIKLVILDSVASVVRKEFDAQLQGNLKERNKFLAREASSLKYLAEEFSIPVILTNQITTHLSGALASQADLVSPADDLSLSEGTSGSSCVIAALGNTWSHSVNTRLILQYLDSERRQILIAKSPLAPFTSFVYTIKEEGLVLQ
T4 sequence 2: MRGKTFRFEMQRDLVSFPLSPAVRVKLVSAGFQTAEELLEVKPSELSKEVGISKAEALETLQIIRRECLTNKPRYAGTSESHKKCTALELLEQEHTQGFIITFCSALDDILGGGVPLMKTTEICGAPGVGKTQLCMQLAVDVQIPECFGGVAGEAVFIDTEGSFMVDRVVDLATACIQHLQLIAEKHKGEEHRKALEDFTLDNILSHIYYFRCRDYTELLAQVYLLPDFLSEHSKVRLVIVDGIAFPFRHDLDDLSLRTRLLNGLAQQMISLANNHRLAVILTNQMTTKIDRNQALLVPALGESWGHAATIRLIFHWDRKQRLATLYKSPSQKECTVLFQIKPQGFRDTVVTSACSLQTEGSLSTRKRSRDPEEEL
T4 sequence 3: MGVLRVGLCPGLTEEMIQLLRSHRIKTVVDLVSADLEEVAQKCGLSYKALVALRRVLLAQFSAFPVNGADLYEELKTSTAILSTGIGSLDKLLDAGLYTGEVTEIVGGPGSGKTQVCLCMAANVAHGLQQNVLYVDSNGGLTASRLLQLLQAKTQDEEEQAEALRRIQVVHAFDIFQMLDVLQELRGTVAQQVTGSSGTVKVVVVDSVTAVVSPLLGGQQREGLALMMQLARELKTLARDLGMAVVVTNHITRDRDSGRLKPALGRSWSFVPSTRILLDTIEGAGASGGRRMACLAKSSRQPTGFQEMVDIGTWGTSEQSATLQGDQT
T4 sequence 4: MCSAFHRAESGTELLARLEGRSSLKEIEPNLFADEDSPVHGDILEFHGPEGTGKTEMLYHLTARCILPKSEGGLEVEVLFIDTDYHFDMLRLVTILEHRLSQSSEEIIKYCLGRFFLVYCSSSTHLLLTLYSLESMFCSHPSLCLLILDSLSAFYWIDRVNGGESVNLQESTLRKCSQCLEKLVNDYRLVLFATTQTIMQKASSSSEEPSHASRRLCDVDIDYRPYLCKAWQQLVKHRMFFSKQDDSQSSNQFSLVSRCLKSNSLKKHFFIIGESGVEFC

| Binder | binding result [1] | binding result [2] | binding result [3] | binding result [4] |
| --- | --- | --- | --- | --- |
| TATCGAATCCGTCTA (ssDNA) [FAM-dN15nt] | binds | binds | binds | – |
| TATCGAATCCGTCTA (ssDNA) [5'-Cy3-dN15nt] | – | – | – | binds |
